What was measured:
[1] = target: TFPI (source not stated; Examples 8, 12 and 45), P10646
[2] = target: recombinant human TFPI purified from a cell line from Novo Nordisk

TFPI (source not stated; Examples 8, 12 and 45), P10646, sequence (P10646 whole entry, looked up): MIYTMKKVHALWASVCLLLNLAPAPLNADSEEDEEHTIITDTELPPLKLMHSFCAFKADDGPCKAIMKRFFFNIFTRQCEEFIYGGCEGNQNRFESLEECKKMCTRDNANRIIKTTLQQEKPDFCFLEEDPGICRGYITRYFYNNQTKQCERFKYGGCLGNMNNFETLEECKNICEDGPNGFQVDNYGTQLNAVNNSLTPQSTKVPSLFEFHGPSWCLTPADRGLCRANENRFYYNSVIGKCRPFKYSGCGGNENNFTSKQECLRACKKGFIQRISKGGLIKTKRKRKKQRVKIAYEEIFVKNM

B1: tissue factor:Factor VIIa complex (sources not stated; Examples 8 and 12) (protein)
chain 1: SGTTNTVAAYNLTWKSTNFKTILEWEPKPVNQVYTVQISTKSGDWKSKCFYTTDTECDLTDEIVKDVKQTYLARVFSYPAGNVESTGSAGEPLYENSPEFTPYLETNLGQPTIQSFEQVGTKVNVTVEDERTLVRRNNTFLSLRDVFGKDLIYTLYYWKSSSSGKKTAKTNTNEFLIDVDKGENYCFSVQAVIPSRTVNRKSTDSPVECMGQEKGEFREIFYIIGAVVFVVIILVIILAISLHKCRKAGVGQSWKENSPLNVS
chain 2: ANAFLEELRPGSLERECKEEQCSFEEAREIFKDAERTKLFWISYSDGDQCASSPCQNGGSCKDQLQSYICFCLPAFEGRNCETHKDDQLICVNENGGCEQYCSDHTGTKRSCRCHEGYSLLADGVSCTPTVEYPCGKIPILEKRNASKPQGR
chain 3: IVGGKVCPKGECPWQVLLLVNGAQLCGGTLINTIWVVSAAHCFDKIKNWRNLIAVLGEHDLSEHDGDEQSRRVAQVIIPSTYVPGTTNHDIALLRLHQPVVLTDHVVPLCLPERTFSERTLAFVRFSLVSGWGQLLDRGATALELMVLNVPRLMTQDCLQQSRKVGDSPNITEYMFCAGYSDGSKDSCKGDSGGPHATHYRGTWYLTGIVSWGQGCATVGHFGVYTRVSQYIEWLQKLMRSEPRPGVLLRAPFP
[1]
  TF:FVIIa activity, hydrolysis of fluorogenic substrate SN-17c; 8 nM TFPI: TFPI inhibited approximately 50% of TF:FVIIa activity under these conditions
  rate of FXa generation in the extrinsic tenase (Xase) assay (chromogenic FXa substrate, A405), normalised at 4 minutes; 1 nM TFPI: TFPI reduced the rate of FXa generation at 4 minutes by nearly 70%

B2: Factor Xa (source not stated; Example 45) (protein)
chain 1: ANSFLEEMKKGHLERECMEETCSYEEAREVFEDSDKTNEFWNKYKDGDQCETSPCQNQGKCKDGLGEYTCTCLEGFEGKNCELFTRKLCSLDNGDCDQFCHEEQNSVVCSCARGYTLADNGKACIPTGPYPCGKQTLER
chain 2: IVGGQECKDGECPWQALLINEENEGFCGGTILSEFYILTAAHCLYQAKRFKVRVGDRNTEQEEGGEAVHEVEVVIKHNRFTKETYDFDIAVLRLKTPITFRMNVAPACLPERDWAESTLMTQKTGIVSGFGRTHEKGRQSTRLKMLEVPYVDRNSCKLSSSFIITQNMFCAGYDTKQEDACQGDSGGPHVTRFKDTYFVTGIVSWGEGCARKGKYGIYTKVTAFLKWIDRSMKTRGLPKAKSHAPEVITSSPLK
[1]
  FXa (1 nM) cleavage of chromogenic substrate S-2765, substrate added last: In the presence of ≧8 nM TFPI, inhibition is nearly complete under these conditions and little product is formed

B3: Factor Xa (Enzyme Research Laboratories) (protein)
chain 1: ANSFLEEMKKGHLERECMEETCSYEEAREVFEDSDKTNEFWNKYKDGDQCETSPCQNQGKCKDGLGEYTCTCLEGFEGKNCELFTRKLCSLDNGDCDQFCHEEQNSVVCSCARGYTLADNGKACIPTGPYPCGKQTLER
chain 2: IVGGQECKDGECPWQALLINEENEGFCGGTILSEFYILTAAHCLYQAKRFKVRVGDRNTEQEEGGEAVHEVEVVIKHNRFTKETYDFDIAVLRLKTPITFRMNVAPACLPERDWAESTLMTQKTGIVSGFGRTHEKGRQSTRLKMLEVPYVDRNSCKLSSSFIITQNMFCAGYDTKQEDACQGDSGGPHVTRFKDTYFVTGIVSWGEGCARKGKYGIYTKVTAFLKWIDRSMKTRGLPKAKSHAPEVITSSPLK
[2]
  FXa (0.2 nM) cleavage of chromogenic substrate Pefachrome FXa 5523; 2 nM TFPI: When TFPI and the chromogenic substrate were added to FXa at the same time, the rate of substrate cleavage decreased gradually as FXa was inhibited by TFPI

B4: extrinsic Xase complex: re-lipidated recombinant human tissue factor (Innovin) and factor VIIa (Enzyme Research Laboratories) (protein)
chain 1: SGTTNTVAAYNLTWKSTNFKTILEWEPKPVNQVYTVQISTKSGDWKSKCFYTTDTECDLTDEIVKDVKQTYLARVFSYPAGNVESTGSAGEPLYENSPEFTPYLETNLGQPTIQSFEQVGTKVNVTVEDERTLVRRNNTFLSLRDVFGKDLIYTLYYWKSSSSGKKTAKTNTNEFLIDVDKGENYCFSVQAVIPSRTVNRKSTDSPVECMGQEKGEFREIFYIIGAVVFVVIILVIILAISLHKCRKAGVGQSWKENSPLNVS
chain 2: ANAFLEELRPGSLERECKEEQCSFEEAREIFKDAERTKLFWISYSDGDQCASSPCQNGGSCKDQLQSYICFCLPAFEGRNCETHKDDQLICVNENGGCEQYCSDHTGTKRSCRCHEGYSLLADGVSCTPTVEYPCGKIPILEKRNASKPQGR
chain 3: IVGGKVCPKGECPWQVLLLVNGAQLCGGTLINTIWVVSAAHCFDKIKNWRNLIAVLGEHDLSEHDGDEQSRRVAQVIIPSTYVPGTTNHDIALLRLHQPVVLTDHVVPLCLPERTFSERTLAFVRFSLVSGWGQLLDRGATALELMVLNVPRLMTQDCLQQSRKVGDSPNITEYMFCAGYSDGSKDSCKGDSGGPHATHYRGTWYLTGIVSWGQGCATVGHFGVYTRVSQYIEWLQKLMRSEPRPGVLLRAPFP
[2]
  FXa generation by the extrinsic Xase (chromogenic FXa substrate); 2 nM TFPI: curve #6 shows that TFPI shuts down Xa generation in the absence of ARC19499

B5: prothrombinase complex: factor Xa (Enzyme Research Laboratories) and factor Va (Haematologic Technologies) on phospholipid membrane (protein)
chain 1: ANSFLEEMKKGHLERECMEETCSYEEAREVFEDSDKTNEFWNKYKDGDQCETSPCQNQGKCKDGLGEYTCTCLEGFEGKNCELFTRKLCSLDNGDCDQFCHEEQNSVVCSCARGYTLADNGKACIPTGPYPCGKQTLER
chain 2: IVGGQECKDGECPWQALLINEENEGFCGGTILSEFYILTAAHCLYQAKRFKVRVGDRNTEQEEGGEAVHEVEVVIKHNRFTKETYDFDIAVLRLKTPITFRMNVAPACLPERDWAESTLMTQKTGIVSGFGRTHEKGRQSTRLKMLEVPYVDRNSCKLSSSFIITQNMFCAGYDTKQEDACQGDSGGPHVTRFKDTYFVTGIVSWGEGCARKGKYGIYTKVTAFLKWIDRSMKTRGLPKAKSHAPEVITSSPLK
chain 3: AQLRQFYVAAQGISWSYRPEPTNSSLNLSVTSFKKIVYREYEPYFKKEKPQSTISGLLGPTLYAEVGDIIKVHFKNKADKPLSIHPQGIRYSKLSEGASYLDHTFPAEKMDDAVAPGREYTYEWSISEDSGPTHDDPPCLTHIYYSHENLIEDFNSGLIGPLLICKKGTLTEGGTQKTFDKQIVLLFAVFDESKSWSQSSSLMYTVNGYVNGTMPDITVCAHDHISWHLLGMSSGPELFSIHFNGQVLEQNHHKVSAITLVSATSTTANMTVGPEGKWIISSLTPKHLQAGMQAYIDIKNCPKKTRNLKKITREQRRHMKRWEYFIAAEEVIWDYAPVIPANMDKKYRSQHLDNFSNQIGKHYKKVMYTQYEDESFTKHTVNPNMKEDGILGPIIRAQVRDTLKIVFKNMASRPYSIYPHGVTFSPYEDEVNSSFTSGRNNTMIRAVQPGETYTYKWNILEFDEPTENDAQCLTRPYYSDVDIMRDIASGLIGLLLICKSRSLDRRGIQRAADIEQQAVFAVFDENKSWYLEDNINKFCENPDEVKRDDPKFYESNIMSTINGYVPESITTLGFCFDDTVQWHFCSVGTQNEILTIHFTGHSFIYGKRHEDTLTLFPMRGESVTVTMDNVGTWMLTSMNSSPRSKKLRLKFRDVKCIPDDDEDSYEIFEPPESTVMATRKMHDRLEPEDEESDADYDYQNRLAAALGIR
chain 4: SNNGNRRNYYIAAEEISWDYSEFVQRETDIEDSDDIPEDTTYKKVVFRKYLDSTFTKRDPRGEYEEHLGILGPIIRAEVDDVIQVRFKNLASRPYSLHAHGLSYEKSSEGKTYEDDSPEWFKEDNAVQPNSSYTYVWHATERSGPESPGSACRAWAYYSAVNPEKDIHSGLIGPLLICQKGILHKDSNMPMDMREFVLLFMTFDEKKSWYYEKKSRSSWRLTSSEMKKSHEFHAINGMIYSLPGLKMYEQEWVRLHLLNIGGSQDIHVVHFHGQTLLENGNKQHQLGVWPLLPGSFKTLEMKASKPGWWLLNTEVGENQRAGMQTPFLIMDRDCRMPMGLSTGIISDSQIKASEFLGYWEPRLARLNNGGSYNAWSVEKLAAEFASKPWIQVDMQKEVIITGIQTQGAKHYLKSCYTTEFYVAYSSNQINWQIFKGNSTRNVMYFNGNSDASTIKENQFDPPIVARYIRISPTRAYNRPTLRLELQGCEVNGCSTPLGMENGKIENKQITASSFKKSWWGDYWEPFRARLNAQGRVNAWQAKANNNKQWLEIDLLKIKKITAIITQGCKSLSSEMYVKSYTIHYSEQGVEWKPYRLKSSMVDKIFEGNTNTKGHVKNFFNPPIISRFIRVIPKTWNQSIALRLELFGCDIY
[2]
  prothrombinase activity (thrombin generation from prothrombin, chromogenic thrombin substrate); 1 nM TFPI (fraction of activity): 0.33

— US20120190834A1
